Measurements taken from article PMC6922461.

Target: trivalent Strep-Tactin-SpyCatcher

B1: Siglec-14 with N-terminal Strep-tag II, on THP-1 cells (receptor)
chain: SAWSHPQFEKEKPVYELQVQKSVTVQEGLCVLVPCSFSYPWRSWYSSPPLYVYWFRDGEIPYYAEVVATNNPDRRVKPETQGRFRLLGDVQKKNCSLSIGDARMEDTGSYFFRVERGRDVKYSYQQNKLNLEVTALIEKPDIHFLEPLESGRPTRLSCSLPGSCEAGPPLTFSWTGNALSPLDPETTRSSELTLTPRPEDHGTNLTCQVKRQGAQVTTERTVQLNVSYAPQNLAISIFFRNGTGTALRILSNGMSVPIQEGQSLFLACTVDSNPPASLSWFREGKALNPSQTSMSGTLELPNIGAREGGEFTCRVQHPLGSQHLSFILSVQRSSSSCICVTEKQQGSWPLVLTLIRGALMGAGFLLTYGLTWIYYTRCGGPQQSRAERPG
  IL-8 secretion of THP-1 Siglec-14–Strep-tag II DAP12 cells against Strep-tag II–binding sites of trivalent generic ligand per CHO cell; mean EC50 (Strep-tag II–binding sites per cell): 200000
